Assay results taken from US20250197889A1.

Target: humanized Nme2Cas9 expressed in HEK293T cells from a plasmid (Neisseria meningitidis strain De11444 (also printed De10444))
Experiment: cell-based or functional assay

AcrIIC4Hpa
fold decrease in genome editing in HEK293T cells at various ratios of Acr to Cas9 plasmid: 4 fold
